{"source": "paper PMC3185043", "assay_in_all_cases": "pull-down SILAC MS", "key": {"[1]": {"system": "MBD2 (U937 nuclear extract) (Homo sapiens)", "settings": "5-methylcytosine at CpG (M.SssI); EMSA: 20 mM HEPES pH 7.9, 1 mM EDTA, 3 mM MgCl2, 10 mM beta-mercaptoethanol, 10% glycerol, 0.1% Triton X-100, 2 ug BSA, 10 ng poly(dI-dC), 30 min on ice …; scale: H/L ratio methylated/unmethylated"}, "[2]": {"system": "RBP-J (U937 nuclear extract) (Homo sapiens)", "settings": "reverse ratio 0.11974; 5-methylcytosine at CpG (M.SssI); EMSA: 20 mM HEPES pH 7.9, 1 mM EDTA, 3 mM MgCl2, 10 mM beta-mercaptoethanol, 10% glycerol, 0.1% Triton X-100, 2 ug BSA, 10 ng poly(dI-dC), 30 min on ice …; scale: H/L ratio methylated/unmethylated"}, "[3]": {"system": "MeCP2 (U937 nuclear extract) (Homo sapiens)", "settings": "reverse ratio 0.18572; 5-methylcytosine at CpG (M.SssI); EMSA: 20 mM HEPES pH 7.9, 1 mM EDTA, 3 mM MgCl2, 10 mM beta-mercaptoethanol, 10% glycerol, 0.1% Triton X-100, 2 ug BSA, 10 ng poly(dI-dC), 30 min on ice …; scale: H/L ratio methylated/unmethylated"}}}
{"substance": "GSTP1 CpG-island multimer, methylated (pull-down)", "values": [{"measurement": "binding signal", "setting": "[1]", "value": 12.9}, {"measurement": "binding signal", "setting": "[2]", "value": 6.21}, {"measurement": "binding signal", "setting": "[3]", "value": 4.54}]}
